The values that follow come from patent US20160030544A1 (ISIS INNOVATION, published 2016).

Experiment [1] concerns the target T1, fH6-7 (factor H CCP domains 6-7) (UniProt P08603 321-443).
T1 construct: domain: fH6-7; Analyte in SPR, 0.5 nM-32 nM
T1 sequence: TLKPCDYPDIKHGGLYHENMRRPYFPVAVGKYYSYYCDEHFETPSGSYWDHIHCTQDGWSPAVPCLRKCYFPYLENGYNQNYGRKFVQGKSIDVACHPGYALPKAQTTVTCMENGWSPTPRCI
Nature of the experiment: SPR, Biacore 3000, protein on CM5 chip, fH6-7 as analyte.

Experiment [2] addresses T1, fH6-7 (factor H CCP domains 6-7). Description: SPR, Biacore 3000, protein on CM5 chip.
For experiment [3], the target named is T2, factor H (fH), full length (human, UniProt P08603 19-1231).
T2 construct: mature; Far western used normal human serum diluted 1:100 as the source of fH; also called full length fH; purified full length fH
Nature of the experiment: ELISA, coated protein, purified full length fH.

Residue numbers refer to the chain shown, from its start. Numbers in names are those of the source.

T2 sequence (P08603 19-1231): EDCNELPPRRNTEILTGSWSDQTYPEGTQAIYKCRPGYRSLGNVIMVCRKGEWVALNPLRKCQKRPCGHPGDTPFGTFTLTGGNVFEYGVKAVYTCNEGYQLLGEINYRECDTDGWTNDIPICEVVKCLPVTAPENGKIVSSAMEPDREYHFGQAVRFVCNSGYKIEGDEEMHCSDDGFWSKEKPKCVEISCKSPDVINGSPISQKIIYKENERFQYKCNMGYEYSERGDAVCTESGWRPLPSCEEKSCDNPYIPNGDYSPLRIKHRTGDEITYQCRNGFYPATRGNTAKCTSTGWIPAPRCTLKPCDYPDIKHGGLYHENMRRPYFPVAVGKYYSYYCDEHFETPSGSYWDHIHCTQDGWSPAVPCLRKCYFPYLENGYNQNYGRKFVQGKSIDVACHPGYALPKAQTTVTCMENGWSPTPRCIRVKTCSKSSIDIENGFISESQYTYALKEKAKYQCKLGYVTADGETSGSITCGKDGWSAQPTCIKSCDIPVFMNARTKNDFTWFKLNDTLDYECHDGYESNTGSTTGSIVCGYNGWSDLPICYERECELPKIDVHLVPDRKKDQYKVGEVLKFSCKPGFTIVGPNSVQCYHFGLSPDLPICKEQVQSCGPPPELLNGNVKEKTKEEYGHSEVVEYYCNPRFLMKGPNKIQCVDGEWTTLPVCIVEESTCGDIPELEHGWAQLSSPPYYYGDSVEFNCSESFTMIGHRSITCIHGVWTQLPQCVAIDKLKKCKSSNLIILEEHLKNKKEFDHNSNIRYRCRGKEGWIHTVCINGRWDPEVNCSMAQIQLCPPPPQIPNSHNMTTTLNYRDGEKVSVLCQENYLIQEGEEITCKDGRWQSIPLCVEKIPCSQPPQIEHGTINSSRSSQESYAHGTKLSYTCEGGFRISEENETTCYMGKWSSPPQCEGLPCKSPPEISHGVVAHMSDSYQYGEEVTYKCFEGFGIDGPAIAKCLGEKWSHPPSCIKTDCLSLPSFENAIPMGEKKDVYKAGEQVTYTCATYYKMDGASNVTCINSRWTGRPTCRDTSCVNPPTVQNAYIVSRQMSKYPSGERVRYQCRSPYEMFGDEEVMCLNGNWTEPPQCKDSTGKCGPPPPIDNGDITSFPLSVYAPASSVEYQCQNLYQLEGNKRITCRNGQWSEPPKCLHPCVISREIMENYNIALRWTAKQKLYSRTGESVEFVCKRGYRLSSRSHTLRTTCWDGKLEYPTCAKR

B1: Ghfp^M4 (R288H) (other)
chain: DKGLKSLTLEASIPQNGTLTLSAQGAEKTFKAGGKDNSLNTGKLKNDKISRFDFVQKIEVDGQTITLASGEFQIYKQDHSAVVALRIEKINNPDKIDSLINQRSFLVSDLGGEHTAFNQLPDGKAEYHGKAFSSDDADGKLTYTIDFAAKQGHGKIEHLKTPEQNVELASAELKADEKSHAVILGDTRYGGEEKGTYHLALFGDRAQEIAGSATVKIGEKVHEIGIADKQ
notes: Text prints R288H (numbering according to fHbp V1.1 structure)
In the case of B1, in experiment [1], binding was put at a Kd of 16 nM.

B2: Ghfp^M4-5 (R288H/D318G) (other)
chain: B1 chain with D228G
notes: Text prints R288H/D318G (fHbp V1.1 structure numbering)
Molecule B2 had a Kd in experiment [1] of 2 nM.

B3: Ghfp^M5 (D318G) (other)
chain: B1 chain with H198R, D228G
notes: Text prints D318G (fHbp V1.1 structure numbering)
B3: the binding result is listed as “no binding (tested: fH6-7 0.5 nM-32 nM)” in experiment [2] and “no binding” in experiment [3].
